Reference: patent US20210107983A1 (Boehringer Ingelheim, published 2021)

T1: Cyno B7H6-His (cynomolgus monkey)
T1 construct: also called CyB7H6; cyB7-H6
T1 chain: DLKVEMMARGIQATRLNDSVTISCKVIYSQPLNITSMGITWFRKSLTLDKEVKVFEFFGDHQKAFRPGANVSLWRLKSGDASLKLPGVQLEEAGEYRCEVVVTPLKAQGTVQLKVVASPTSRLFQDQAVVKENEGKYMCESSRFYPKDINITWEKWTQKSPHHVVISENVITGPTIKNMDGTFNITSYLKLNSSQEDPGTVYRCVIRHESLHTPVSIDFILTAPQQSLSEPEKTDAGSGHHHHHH


Legend:
Human CD3 E+G HuFc-6xHis = target: T2, Human CD3 E+G HuFc-6xHis (human); test: SPR, CD3E+G-hFc immobilized, binder analyte
T2 construct: also called HuCD3E+G-hFc; huCD3
Experimental: To determine the affinity of the B7H6/CD3 binding protein to human and cyno CD3E+G-hFc, the experiment was performed on a Bio-Rad ProteOn™ XPR36 instrument. Briefly, HuCD3E+G-hFc and CyCD3E+G were amine-coupled on a ProteOn™ GLM sensor chip (Bio-Rad) and the B7H6/CD3 binding protein was flowed over the immobilized surface. The running buffer for this experiment and all serial dilutions were prepared in HBS-EP+. The GLM sensor chip was normalized according to Bio-Rad's recommendations. The sensor chip was activated with an equal mixture of EDC/s-NHS in the horizontal direction for 300 s at a flow rate of 30 μL/min HuCD3E+G-hFc was immobilized in the vertical direction at 0.4 μg/mL, 0.2 μg/mL and 0.1 μg/mL in 10 mM acetate pH 4.5 to L1, L2 and L3, respectively, for 300 s at a flow rate of 30 μL/min resulting in about 100 RU of HuCD3E+G-hFc on L1, 40 RU of HuCD3E+G-hFc on L2 and 0 RU of HuCD3E+G-hFc on L3. CyCD3E+G-hFc was immobilized in the vertical direction at 0.4 μg/mL, 0.2 μg/mL and 0.1 μg/mL in 10 mM acetate pH 4.5 to L4, L5 and L6, respectively, for 300 s at a flow rate of 30 μL/min resulting in about 385 RU of […], 170 RU of CyCD3E+G-hFc on L5 and 50 RU of CyCD3E+G-hFc on L6. The sensor chip was deactivated with 1M ethanolamine-HCl in the horizontal direction for 300 s at a flow rate of 30 μL/min.
(§1) The B7H6/CD3 binding protein analyte was injected horizontally over the immobilized surface for 300 s at a flow rate of 30 μL/min with a dissociation of 600 s. The concentrations of the B7H6/CD3 binding protein used were 0 nM, 1.2 nM, 3.7 nM, 11.1 nM, 33.3 nM and 100 nM.
The interspot (interactions with sensor surface) and blank (HBS-EP+ or 0 nM analyte) were subtracted from the raw data.

Cyno B7H6-His [1] = target: T1, Cyno B7H6-His; test: SPR, binder captured on Protein A/G, B7H6 analyte
Experimental: (§2) To determine the affinity of human and cyno B7H6 and human B7H1 to B7H6/CD3 binding proteins, the experiment was performed on a Biacore™ 8K instrument (GE Healthcare Life Sciences). Briefly, the B7H6/CD3 binding protein was captured via Protein A/G. The running buffer for this experiment and all serial dilutions were prepared in HBS-EP+. The CM5 sensor chip was activated with an equal mixture of EDC/NHS across both flow cells for 420 s at a flow rate of 10 μL/min and immobilized with recombinant Protein A/G (50 μg/ml in 10 mM NaOAc, pH 4.5) across all flow cells for 420 s at a flow rate of 10 μL/min resulting in about 2500 RU of Protein A/G on the surface. The sensor chip was deactivated with 1M ethanolamine-HCl across all flow cells for 420 s at a flow rate of 10 μL/min.
(§3) About 700 RU of the B7H6/CD3 binding protein was captured on flow cell 2 of the Protein A/G surface for 60 s at a flow rate of 10 μL/min. The analytes HuB7H6, CyB7H6 and HuB7H1 were injected across both flow cells over captured B7H6/CD3 binding protein for 300 s at a flow rate of 30 μL/min with a dissociation of 1200 s. The concentrations of HuB7H6 and CyB7H6 were 0 nM, 6.25 nM, 12.5 nM, 25 nM, 50 nM and 100 nM. The concentrations of HuB7H1 were 0 nM and 1 μM. The surface was regenerated by injecting 10 mM glycine-HCl, pH 1.5 for 20 s at a flow rate of 30 μL/min across both flow cells.
(§4) The reference flow cell 1 (interactions with sensor surface) and blank (HBS-EP+ or 0 nM analyte) were subtracted from the raw data.

[2] = target: T3, chicken egg white lysozyme (chicken, UniProt P00698 19-147); test: SPR, 1 µM binder over immobilized lysozyme
T3 construct: unrelated positively charged protein, amine-coupled to the chip; also called Lysozyme (positive)
Experimental: (§5) The experiment was performed on a Biacore® T200 SPR system (GE Healthcare Life Sciences). The dilution, surface preparation, and binding experiments were performed at 25° C. in 1×HBS-EP buffer prepared from 10×HBS-EP. The flow rate for both the immobilization protocol and binding experiment was at 5 μL/min.
(§6) To prepare the surface for the non-specific binding experiment, chicken egg white lysozyme and trypsin inhibitor from Glycine max soybean were coupled manually to a Biacore® series S CM5 sensor chip (GE Healthcare sciences) with the surface density of 3000-5000 RU using the amine coupling kit according to the manufacture instructions. Samples were prepared at 1 μM in 1×HBS-EP buffer. The samples were injected over activated surfaces with a 10 min association and 15 min dissociation. The data was collected using Biacore® T200 Control Software version 2.0.1 and analyzed using Biacore® T200 Evaluation Software version 3.0 (GE Healthcare Life Sciences).

[3] = target: T4, trypsin inhibitor from Glycine max soybean (Glycine max (soybean)); test: SPR, 1 µM binder over immobilized trypsin inhibitor
T4 construct: unrelated negatively charged protein, amine-coupled to the chip
Experimental: as §5, §6

Human B7H1 = target: T5, Human B7H1 (human, UniProt Q9NZQ7 20-239); test: SPR, binder captured on Protein A/G, HuB7H1 analyte
T5 construct: also called HuB7H1; huB7-H1
Experimental: as §2, §3, §4

Cyno B7H6-His [4] = target: T1, Cyno B7H6-His; test: ratio of SPR KDs cyno/human
Experimental: as §3, §4, §1

T5 sequence (Q9NZQ7 other isoform, or with tags, fused parts or gaps limits assumed): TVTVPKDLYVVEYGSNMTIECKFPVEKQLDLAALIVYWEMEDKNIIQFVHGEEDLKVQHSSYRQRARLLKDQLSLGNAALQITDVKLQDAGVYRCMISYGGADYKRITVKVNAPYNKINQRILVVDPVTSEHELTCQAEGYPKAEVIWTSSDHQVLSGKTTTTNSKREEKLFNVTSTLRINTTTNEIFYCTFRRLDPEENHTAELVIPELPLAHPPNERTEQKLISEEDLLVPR
T3 sequence (P00698 19-147): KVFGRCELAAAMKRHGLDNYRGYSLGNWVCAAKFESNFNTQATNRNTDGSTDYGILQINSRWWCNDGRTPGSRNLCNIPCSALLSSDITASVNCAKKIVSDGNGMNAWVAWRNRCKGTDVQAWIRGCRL
T4 sequence (P01070 25-205): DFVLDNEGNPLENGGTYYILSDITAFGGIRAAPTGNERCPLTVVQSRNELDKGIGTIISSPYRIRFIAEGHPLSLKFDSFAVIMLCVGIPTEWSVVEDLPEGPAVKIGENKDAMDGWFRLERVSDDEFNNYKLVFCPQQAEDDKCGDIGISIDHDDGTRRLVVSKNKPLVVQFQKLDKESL
T2 sequence (chain, as listed by the source limits assumed): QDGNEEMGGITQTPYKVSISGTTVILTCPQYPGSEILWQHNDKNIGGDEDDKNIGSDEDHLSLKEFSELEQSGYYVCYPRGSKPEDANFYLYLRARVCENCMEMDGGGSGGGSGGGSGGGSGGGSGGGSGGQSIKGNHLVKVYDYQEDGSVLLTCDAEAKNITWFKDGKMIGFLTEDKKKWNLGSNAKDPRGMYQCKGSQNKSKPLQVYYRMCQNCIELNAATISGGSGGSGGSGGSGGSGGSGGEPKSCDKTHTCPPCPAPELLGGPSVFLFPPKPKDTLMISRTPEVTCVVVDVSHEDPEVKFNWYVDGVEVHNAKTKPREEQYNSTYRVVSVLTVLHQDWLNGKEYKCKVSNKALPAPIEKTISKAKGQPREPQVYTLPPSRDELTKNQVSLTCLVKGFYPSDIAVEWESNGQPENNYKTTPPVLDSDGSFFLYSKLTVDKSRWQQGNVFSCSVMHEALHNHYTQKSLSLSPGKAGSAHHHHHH

| Kd (Human CD3 E+G HuFc-6xHis) | Kd (Cyno B7H6-His [1]) | Non-specific binding (RU) [2] | Non-specific binding (RU) [3] | binding result (Human B7H1) | cy/hu B7-H6 (Cyno B7H6-His [4]) | Binder |
| --- | --- | --- | --- | --- | --- | --- |
| 13.5 nM | 8.4 nM | 15.3 RU | 88.4 RU | no binding (tested: 1 µM) | 1 | B7H6#17/CD3#1 (bispecific antibody, human IgG1, kappa, lambda, L234A L235A, scFab-Fc heterodimer, one B7H6 chain and one CD3 chain) chain 1: DIQMTQSPSSLSASVGDRVTITCKASQNVGKYVAWYQQKPGKAPKSLIYSASNRYDGVPSRFSGSGSGTDFTLTISSLQPEDFTTYYCQQYISYPLTFGAGTKLEIKRTVAAPSVFIFPPSDEQLKSGTASVVCLLNNFYPREAKVQWKVDNALQSGNSQESVTEQDSKDSTYSLSSTLTLSKADYEKHKVYACEVTHQGLSSPVTKSFNRGECGGGGSEGKSSGSGSESKSTEGKSSGSGSESKSTGGGGSQVQLVQSGAEVKKPGASVKVSCKASGYTFTSYWMNWMRQAPGQGLEWMGGIYLSGDSTDYNEKFKGRVTMTVDTSTSTVYMELSSLRSEDTAVYYCTRRGDYFGDFWGQGTLVTVSSASTKGPSVFPLAPSSKSTSGGTAALGCLVKDYFPEPVTVSWNSGALTSGVHTFPAVLQSSGLYSLSSVVTVPSSSLGTQTYICNVNHKPSNTKVDKRVEPKSCDKTHTCPPCPAPEAAGGPSVFLFPPKPKDTLMISRTPEVTCVVVDVSHEDPEVKFNWYVDGVEVHNAKTKPREEQYNSTYRVVSVLTVLHQDWLNGKEYKCKVSNKALPAPIEKTISKAKGQPREPQVYTLPPSREEMTKNQVSLWCLVKGFYPSDIAVEWESNGQPENNYKTTPPVLDSDGSFFLYSKLTVDKSRWQQGNVFSCSVMHEALHNHYTQKSLSLSPG chain 2: EAVVTQEPSLTVSPGGTVTLTCRSSTGAVTTSNYANWVQEKPGQLPRGLIGGTNKRAPWVPARFSGSLLGGKAALTLSGAQPEDEAEYFCALWYSNLWVFGGGTKLTVLGQPKAAPSVTLFPPSSEELQANKATLVCLISDFYPGAVKVAWKADGSPVNTGVETTTPSKQSNNKYAASSYLSLTPEQWKSHRSYSCQVTHEGSTVEKTVAPAECSGGGGSEGKSSGSGSESKSTEGKSSGSGSESKSTGGGGSEVQLVESGGGLVQPGGSLKLSCAASGFTFNTYAMNWVRQAPGKGLEWVARIRSKYNNYATYYADSVKDRFTISRDDSKNTAYLQMNNLKTEDTAVYYCVRHGNFGNSYVSWFAYWGQGTLVTVSAASTKGPSVFPLAPSSKSTSGGTAALGCLVKDYFPEPVTVSWNSGALTSGVHTFPAVLQSSGLYSLSSVVTVPSSSLGTQTYICNVNHKPSNTKVDKRVEPKSCDKTHTCPPCPAPEAAGGPSVFLFPPKPKDTLMISRTPEVTCVVVDVSHEDPEVKFNWYVDGVEVHNAKTKPREEQYNSTYRVVSVLTVLHQDWLNGKEYKCKVSNKALPAPIEKTISKAKGQPREPQVYTLPPSREEMTKNQVSLSCAVKGFYPSDIAVEWESNGQPENNYKTTPPVLDSDGSFFLVSKLTVDKSRWQQGNVFSCSVMHEALHNRFTQKSLSLSPG |
| 3.6 nM | 2.3 nM | 9.2 RU | 35.4 RU | no binding (tested: 1 µM) | 2.1 | B7H6#12/CD3#1 (bispecific antibody, human IgG1, kappa, lambda, L234A L235A, scFab-Fc heterodimer, one B7H6 chain and one CD3 chain) chain 1: DIQMTQSPSSLSASVGDRVTITCKASQNVGKYVAWYQQKPGKAPKSLIYSASNRYDGVPSRFSGSGSGTDFTLTISSLQPEDFTTYYCQQYISYPLTFGAGTKLEIKRTVAAPSVFIFPPSDEQLKSGTASVVCLLNNFYPREAKVQWKVDNALQSGNSQESVTEQDSKDSTYSLSSTLTLSKADYEKHKVYACEVTHQGLSSPVTKSFNRGECGGGGSEGKSSGSGSESKSTEGKSSGSGSESKSTGGGGSQVQLVQSGAEVKKPGASVKVSCKASGYTFTNYWMNWVKQAPGQGLEWMGGIYLNGDSTDYNEKFKGKATMTVDTSTSTVYMELSSLRSEDTAVYYCTRRGDYFGDFWGQGTLVTVSSASTKGPSVFPLAPSSKSTSGGTAALGCLVKDYFPEPVTVSWNSGALTSGVHTFPAVLQSSGLYSLSSVVTVPSSSLGTQTYICNVNHKPSNTKVDKRVEPKSCDKTHTCPPCPAPEAAGGPSVFLFPPKPKDTLMISRTPEVTCVVVDVSHEDPEVKFNWYVDGVEVHNAKTKPREEQYNSTYRVVSVLTVLHQDWLNGKEYKCKVSNKALPAPIEKTISKAKGQPREPQVYTLPPSREEMTKNQVSLWCLVKGFYPSDIAVEWESNGQPENNYKTTPPVLDSDGSFFLYSKLTVDKSRWQQGNVFSCSVMHEALHNHYTQKSLSLSPG chain 2: EAVVTQEPSLTVSPGGTVTLTCRSSTGAVTTSNYANWVQEKPGQLPRGLIGGTNKRAPWVPARFSGSLLGGKAALTLSGAQPEDEAEYFCALWYSNLWVFGGGTKLTVLGQPKAAPSVTLFPPSSEELQANKATLVCLISDFYPGAVKVAWKADGSPVNTGVETTTPSKQSNNKYAASSYLSLTPEQWKSHRSYSCQVTHEGSTVEKTVAPAECSGGGGSEGKSSGSGSESKSTEGKSSGSGSESKSTGGGGSEVQLVESGGGLVQPGGSLKLSCAASGFTFNTYAMNWVRQAPGKGLEWVARIRSKYNNYATYYADSVKDRFTISRDDSKNTAYLQMNNLKTEDTAVYYCVRHGNFGNSYVSWFAYWGQGTLVTVSAASTKGPSVFPLAPSSKSTSGGTAALGCLVKDYFPEPVTVSWNSGALTSGVHTFPAVLQSSGLYSLSSVVTVPSSSLGTQTYICNVNHKPSNTKVDKRVEPKSCDKTHTCPPCPAPEAAGGPSVFLFPPKPKDTLMISRTPEVTCVVVDVSHEDPEVKFNWYVDGVEVHNAKTKPREEQYNSTYRVVSVLTVLHQDWLNGKEYKCKVSNKALPAPIEKTISKAKGQPREPQVYTLPPSREEMTKNQVSLSCAVKGFYPSDIAVEWESNGQPENNYKTTPPVLDSDGSFFLVSKLTVDKSRWQQGNVFSCSVMHEALHNRFTQKSLSLSPG |
